Assay results: paper PMC6044767
“And” between values parts separate entries of the source, which are not always exact repeats. Identical values can stand only once. Blank lines part the entries; values can stand above or below the molecule they belong to.

What was measured:
[1] = target: native Escherichia coli L-asparaginase II (Kidrolase) (E. coli) (UniProt P00805); test: native gel or EMSA
[2] = target: native Escherichia coli L-asparaginase II (Kidrolase) (E. coli) (UniProt P00805); test: native gel or EMSA; remark: listed apart in the source
[3] = target: native Escherichia coli L-asparaginase II (Kidrolase) (E. coli) (UniProt P00805)
[4] = target: native Escherichia coli L-asparaginase II (Kidrolase) (E. coli) (UniProt P00805); remark: listed apart in the source
[5] = target: native Escherichia coli L-asparaginase II (Kidrolase) (E. coli) (UniProt P00805); test: SEC
[6] = target: T1, N21-EcAII (E. coli K12), P00805; test: SEC; conditions: remark: other sources report otherwise
T1 chain: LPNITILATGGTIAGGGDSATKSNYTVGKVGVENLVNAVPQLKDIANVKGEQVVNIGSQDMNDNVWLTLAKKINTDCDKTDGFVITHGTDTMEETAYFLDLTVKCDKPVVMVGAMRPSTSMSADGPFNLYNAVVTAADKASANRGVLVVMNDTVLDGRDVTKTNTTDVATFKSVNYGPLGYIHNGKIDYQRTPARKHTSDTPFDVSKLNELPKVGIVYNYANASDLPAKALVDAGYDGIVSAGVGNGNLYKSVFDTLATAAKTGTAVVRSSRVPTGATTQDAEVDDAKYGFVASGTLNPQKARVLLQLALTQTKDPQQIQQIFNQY

[7] = target: T1, N21-EcAII (E. coli K12), P00805; test: SEC; conditions: remark: other sources report otherwise
[8] = target: T2, C8-EcAII (E. coli K12), P00805; test: native gel or EMSA; conditions: remark: other sources report otherwise
T2 chain: T1 chain

[9] = target: T2, C8-EcAII (E. coli K12), P00805; test: SEC; conditions: remark: other sources report otherwise
[10] = target: T2, C8-EcAII (E. coli K12), P00805; test: SEC; conditions: remark: other sources report otherwise
[11] = target: T3, N26-EcAII (E. coli K12), P00805; test: native gel or EMSA; conditions: remark: other sources report otherwise
T3 chain: T1 chain

[12] = target: T3, N26-EcAII (E. coli K12), P00805; test: SEC; conditions: remark: other sources report otherwise
[13] = target: T3, N26-EcAII (E. coli K12), P00805; test: SEC; conditions: remark: other sources report otherwise

Molecule: native Escherichia coli L-asparaginase II (Kidrolase) (from UniProt P00805 23-348) (enzyme)
stoichiometry N [1]: 8 and 12 and 4 | stoichiometry N [2]: 4 and 8 and 12 | specific activity of EcAII immobilized on gold chips (GDH-coupled assay) [3]: 310 U mg^–1 | specific activity in solution (GDH-coupled assay) [4]: 118 U mg^–1 | stoichiometry N [5]: 4 and 8 and 12

stoichiometry N [6]: 4 | stoichiometry N [7]: 8 and 12 and 4
B1: N21-EcAII, P00805 23-348 (enzyme)
chain: T1 chain

percent dissociated into monomer [8]: 50% | stoichiometry N [8]: 4 and 8 | stoichiometry N [9]: 4 | stoichiometry N [10]: 4
B2: C8-EcAII, P00805 23-348 (enzyme)
chain: T1 chain

stoichiometry N [11]: 4 | stoichiometry N [12]: 4 | stoichiometry N [13]: 4
B3: N26-EcAII, P00805 23-348 (enzyme)
chain: T1 chain
